The values that follow come from paper PMC3996484, “Apoptosis Therapy in Cancer: The First Single-molecule Co-activating p53 and the Translocator Protein in Glioblastoma” (Scientific Reports, 2014).

In this assay the target is T1, recombinant human His-tagged p53 protein (residues 1-312) (human, UniProt P04637 1-312).
T1 construct: p53 tumor suppressor, human, residues 1-312; source: final buffer with 0.2 mM ZnCl2
Kind of assay: NMR titration; AIDA, 1D proton NMR of tryptophan side chain NH-epsilon signals of p53 alone and of the MDM2/p53 complex; 0.1 mM proteins, 20 mM TrisHCl, 150 mM KCl, pH 7.4, 5 mM beta-mercaptoethanol, 0.02% NaN3, 25°C, 700 MHz. As to conditions: both partners purified.

T1 sequence (P04637 1-312): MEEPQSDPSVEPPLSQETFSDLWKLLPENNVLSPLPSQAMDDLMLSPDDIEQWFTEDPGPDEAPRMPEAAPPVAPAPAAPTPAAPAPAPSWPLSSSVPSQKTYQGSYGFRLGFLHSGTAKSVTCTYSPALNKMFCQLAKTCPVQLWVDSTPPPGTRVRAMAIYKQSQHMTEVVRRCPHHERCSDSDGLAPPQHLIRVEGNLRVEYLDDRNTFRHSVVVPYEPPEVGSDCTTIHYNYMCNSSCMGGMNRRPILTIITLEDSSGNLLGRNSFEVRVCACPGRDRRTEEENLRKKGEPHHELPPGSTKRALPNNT

B1: recombinant human His-tagged N-terminal region of MDM2 (residues 1-118) (domain or fragment, UniProt Q00987 1-118, looked up)
chain: MCNTNMSVPTDGAVTTSQIPASEQETLVRPKPLLLKLLKSVGAQKDTYTMKEVLFYLGQYIMTKRLYDEKQQHIVYCSNDLLGDLFGVPSFSVKEHRKIYTMIYRNLVVVNQQESSDS
notes: MDM2 (murine double minute 2), human, N-terminal region, residues 1-118; Cloned in a derivative of the vector pET-46Ek/LIC (Novagen); also called murine double minute 2
As for B1, the binding result is “binds”.
